Measured values published in US20250034527A1 (Stanford University, published 2025).

Tests used:
Fzd1 CRD [1] = biological target: T1, Fzd1 CRD (human, UniProt Q9UP38 111-230); assay: yeast surface display of DFB, titration with biotinylated Fzd CRD, flow cytometry; yeast titration, Fz1
Text: (§1) To understand the affinity of individual DFBs towards different Fzd CRDs, two different methods were used to measure the specificity and affinity. DFBs were expressed on yeast surface and the yeast stained with biotinylated Fzd CRDs. The cells were washed and Streptavidin, Alexa Fluor™ 647 conjugates were used to stain the yeasts. The fluorescence signals were read on flow cytometry.

Fzd7 CRD [2] = biological target: T2, Fzd7 CRD (human, UniProt O75084 44-163); assay: SPR: biotinylated Fzd7 CRD captured on an SA chip, 1AF34 as analyte, 63 nM down to 0.24 nM
Procedure: (§2) Second, individual DFB proteins were purified and surface Plasmon Resonance (SPR) used to measure the affinity between Fzd CRD with the DFB. The biotinylated Fzd CRD was captured on SA sensor chip at low density. A gradient concentration of DFB analyte was flown over the chip. The data was analyzed by BIACore accompanying software.

Fzd2 CRD [3] = biological target: T3, Fzd2 CRD (human, UniProt Q14332 34-153); assay: yeast surface display of DFB, titration with biotinylated Fzd CRD, flow cytometry; yeast titration, Fz2
Text: as §1

Fzd8 CRD [4] = biological target: T4, Fzd8 CRD (human, UniProt Q9H461 30-151, limits assumed, biotinylated); assay: SPR, biotinylated Fzd CRD captured on SA chip, DFB as analyte; SPR, Fzd8
T4 construct: domain: CRD; Species 'human' comes from the specificity statements; also called Fz8; frizzled 8 cysteine rich domain
T4 sequence (looked up): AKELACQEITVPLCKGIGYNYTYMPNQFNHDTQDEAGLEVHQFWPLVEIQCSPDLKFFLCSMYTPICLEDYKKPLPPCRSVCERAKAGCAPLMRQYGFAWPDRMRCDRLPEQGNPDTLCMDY
Procedure: as §2

Fzd7 CRD [5] = biological target: T2, Fzd7 CRD; assay: SPR, biotinylated Fzd CRD captured on SA chip, DFB as analyte; SPR, Fzd7
Procedure: as §2

Fzd7 CRD [6] = biological target: T2, Fzd7 CRD; assay: yeast surface display of DFB, titration with biotinylated Fzd CRD, flow cytometry; yeast titration, Fz7
Text: as §1

Fzd1 CRD [7] = biological target: T1, Fzd1 CRD; assay: yeast surface display of ANK12, staining with biotinylated Fzd CRD and streptavidin-Alexa Fluor 647, flow cytometry
Text: as §1

Fzd4 CRD [8] = biological target: T5, Fzd4 CRD (human, UniProt Q9ULV1 40-161, limits assumed, biotinylated); assay: as above
T5 construct: domain: CRD; also called Fz4; frizzled 4 cysteine rich domain
T5 sequence (looked up): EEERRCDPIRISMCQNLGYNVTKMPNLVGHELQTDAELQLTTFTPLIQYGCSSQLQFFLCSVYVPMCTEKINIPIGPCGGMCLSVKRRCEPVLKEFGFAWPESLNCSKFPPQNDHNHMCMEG
Text: as §1

Fzd7 CRD [9] = biological target: T2, Fzd7 CRD; assay: as above
Text: as §1

Fzd2 CRD [10] = biological target: T3, Fzd2 CRD; assay: as above
Text: as §1

Fzd5 CRD [11] = biological target: T6, Fzd5 CRD (human, UniProt Q13467 28-150, limits assumed, biotinylated); assay: yeast surface display of DFB, titration with biotinylated Fzd CRD, flow cytometry
T6 construct: domain: CRD; Species 'human' comes from the specificity statements; also called Fz5; frizzled 5 cysteine rich domain
T6 sequence (looked up): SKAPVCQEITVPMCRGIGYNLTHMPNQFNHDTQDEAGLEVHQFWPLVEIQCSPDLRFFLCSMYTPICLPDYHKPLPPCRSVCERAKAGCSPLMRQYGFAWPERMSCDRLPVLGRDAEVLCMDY
Text: as §1

Fzd8 CRD [12] = biological target: T4, Fzd8 CRD; assay: as above
Text: as §1

Fzd8 CRD [13] = biological target: T4, Fzd8 CRD; assay: SPR, biotinylated Fzd CRD captured on SA chip, DFB as analyte
Procedure: as §2

Fzd8 CRD [14] = biological target: T4, Fzd8 CRD; assay: SPR: biotinylated Fzd8 CRD captured on an SA chip, 1AF34F7 as analyte, 1 uM down to 0.24 nM
Procedure: as §2

Fzd7 CRD [15] = biological target: T2, Fzd7 CRD; assay: SPR, biotinylated Fzd CRD captured on SA chip, DFB as analyte
Procedure: as §2

Fzd5 CRD [16] = biological target: T6, Fzd5 CRD; assay: yeast surface display titration with biotinylated Fzd CRD, flow cytometry
Fzd1 CRD [17] = biological target: T1, Fzd1 CRD; assay: yeast surface display of 4AF30, staining with biotinylated Fzd CRD and streptavidin-Alexa Fluor 647, flow cytometry
Text: as §1

Fzd5 CRD [18] = biological target: T6, Fzd5 CRD; assay: as above
Text: as §1

Fzd2 CRD [19] = biological target: T3, Fzd2 CRD; assay: as above
Text: as §1

Fzd4 CRD [20] = biological target: T5, Fzd4 CRD; assay: yeast surface display of DFB, titration with biotinylated Fzd CRD, flow cytometry
Text: as §1

Fzd4 CRD [21] = biological target: T5, Fzd4 CRD; assay: SPR, biotinylated Fzd CRD captured on SA chip, DFB as analyte
Procedure: as §2

B1: 1AF34 (designed binder)
chain: SELGTRLIRAALDGNKDRVKDLIENGADVNASLMSGATPLHAAAMNGHKEVVKLLISKGADVNAQSVAGSTPLDAAAFSGHKEVVKLLISKGADVNAVNAAGLTPLHAAADNGHKEVVKLLISKGADVNAKADHGMTPLHFAAQRGHKEVVKLLISKGADLNTSAKDGATPLDMARESGNEEVVKLLEKQLE
notes: Engineered ankyrin-repeat protein; Display fusion and tags are not described; also called DFB
EC50 (Fzd1 CRD [1]): 19 nM
Kd (Fzd7 CRD [2]): 1.3 nM
EC50 (Fzd2 CRD [3]): 31.6 nM
Kd (Fzd8 CRD [4]): 23 nM
Kd (Fzd7 CRD [5]): 1 nM
EC50 (Fzd7 CRD [6]): 5.6 nM

B2: ANK12 (designed binder)
chain: SELGKRLIMAALDGNKDRVKDLIENGADVNASLVSGATPLHAAAMNGHKEVVKLLISKGADVNAQSAAGSTPLAAAAINGHKEVVKLLISKGADVNAVTAAGMTPLHAAAANGHKEVVKLLISKGADVNAKADRGMTPLHFAAWRGHKEVVKLLISKGADLNTSAKDGATPLDMARESGNEEVVKLLEKQLE
notes: as for B1
binding result (Fzd1 CRD [7]): no binding (tested: 1000 nM)
binding result (Fzd4 CRD [8]): no binding (tested: 1000 nM)
binding result (Fzd7 CRD [9]): no binding (tested: 1000 nM)
binding result (Fzd2 CRD [10]): no binding (tested: 1000 nM)
EC50 (Fzd5 CRD [11]): 4.4 nM
EC50 (Fzd8 CRD [12]): 3.6 nM
Kd (Fzd8 CRD [13]): 0.2 nM

B3: 1AF34F7 (designed binder)
chain: SELGTRLIRAALDGNKDRVKDLIENGADVNASLMSGATPLHAAAMNGHKEVVKLLISKGADVNAQSVAGSTPLDAAAFSGHKEVVKLLISKGADVNAVNAAGLTPLHDAADDGHNEVVKLLISKGADVNAKADHGMTPLHFAAQRGHKEVVKLLISKGADLNTSAKDGATPLDMARESGNEEVVKLLEKQLE
notes: as for B1
EC50 (Fzd1 CRD [1]): 7.5 nM
Kd (Fzd8 CRD [14]): 2600 nM
EC50 (Fzd2 CRD [3]): 9.9 nM
Kd (Fzd7 CRD [15]): 1.6 nM
EC50 (Fzd7 CRD [6]): 1.8 nM
binding result (Fzd5 CRD [16]): no binding (tested: 1 µM)

B4: 4AF30 (designed binder)
chain: SELGKRLIRAALDGNKDRVKDLIENGADVNASLMSGTTPLYAAAMNGHKEVVKLLISKGADVNAQSVAGSTPLVAAANFGHNEVVKLLISKGADVNAVTAFGVTPLHAAAADGHKEVVKLLISKGADVNAKAGRGMTPLHIAAFRGHKEVVKLLISKGADLNTSAKDGATPLDMARESGNEEVVKLLEKQLE
notes: as for B1
binding result (Fzd1 CRD [17]): no binding (tested: 1000 nM)
binding result (Fzd5 CRD [18]): no binding (tested: 1000 nM)
binding result (Fzd2 CRD [19]): no binding (tested: 1000 nM)
EC50 (Fzd4 CRD [20]): 1.6 nM
Kd (Fzd4 CRD [21]): 1.4 nM
Kd (Fzd8 CRD [13]): 400 nM
